Data from US5847076A, “Regulators of the proteasome” (Board of Regents, The University of Texas System, priority 1993, dated 1998).
Ends that are not written are not given here.

Legend:
proteasome = biological target: T1, proteasome; assay: Binding of PA28 carboxy-terminal peptides to the proteasome
T1 construct: from tissue
Text: (§1) Therefore, this peptide or a compound with similar properties may be used to block the action of the proteasome in intact cells. Such a compound or analogs having similar binding activity may be used to control accelerated rates of intracellular protein degradation. The peptide has the sequence: Acetyl-KNFEKLKKPRGETKGMIY (SEQ ID NO. 3). The N-terminal lysine may be acetylated if needed for stability. […] Therefore, the C-terminal Ile-Tyr amino acids or their functional equivalents appear to be important for binding of the 18-mer to the proteasome and for inhibition of the activation of the proteasome by activating factors PA28 and PA700. An equivalent of the 18-mer may comprise less than 18 amino acids or may comprise functionally equivalent amino acid replacements which allow similar binding activity.

[1] = biological target: T2, proteasome activation by PA700; assay: Inhibition of proteasome activation by PA700 by C18 peptide; format: biochemical; details: for inhibition of proteasome activation by PA700: FIG. 27; for effect of peptide alone on proteasome activity: no activator
T2 construct: from tissue
Procedure: Activation of the proteasome by PA700 was performed in the presence of the indicated concentrations of purified C18 peptide.
as §1

[2] = biological target: T3, proteasome activation by PA28; assay: Inhibition of PA28-activated proteasome by carboxy-terminal peptide; format: biochemical; details: for inhibition of proteasome activation by PA28: 0.5 μg proteasome, 1 μg PA28 (FIG. 26)
T3 construct: from tissue
Procedure: Proteasome activity in the absence of PA28 was 1.2 units/assays. Assays contained 0.5 μg of proteasome and 1 μg of PA28.
as §1

PA28 = assay: Assay for PA28-inactivating activity (residual PA28 activity after preincubation with peptidase); format: biochemical, bovine
Procedure: Assay for PA28-inactivating activity. The inactivation of PA28 was assessed by measuring residual PA28 activity after preincubation of purified PA28 with the inactivating protein. The preincubation contained purified bovine red blood cell PA28 (0.2 μg), 100 mM MES buffer, pH 5.2, 2 mM DTT, and inactivating protein or other factors, as described in this example, in a final volume of 15 μl. After preincubation at […] for 10 min., the reaction was stopped by addition of 1.0 ml of a solution containing 50 mM Trios-HCl, pH 8.0, 1 mM DTT, and 50 μM Suc-LeuLeu-Val-Tyr-AMC (or other proteasome substrate). […] The assays consisted of 50 mM MES buffer, pH 5.2, 1 mM DTT, 50 μM substrate, and 50 μl of column fractions in a final volume of 1.0 ml. Reactions were carried out at 30° C. and the release of free MNA (or other reporter group) was monitored directly by fluorescence. 1.0 unit of activity is defined as the increase in product concentration of 1.0 nM/min.

[3] = system: proteasome (latent and active forms); details: cited from earlier work
[4] = listed as 18 amino acid peptide

Acetyl-KNFEKLKKPRGETKGMIY (Ac-KNFEKLKKPRGETKGMIY) [C18, 18 amino acid peptide corresponding to the carboxyterminal 18 amino acids of PA28]
binding to the proteasome (proteasome): does bind to it | inhibition of proteasome activation by PA700 [1]: competitively inhibits proteasome activation by PA700 | inhibition of proteasome activation by PA700 [1, 4]: competitively inhibits the binding and activation of proteasome activator, PA700 | effect of peptide alone on proteasome activity [1]: had no effect on baseline proteasome activity | effect of peptide alone on proteasome activity [1, 4]: does not activate the proteasome | inhibition of proteasome activation by PA28 [2]: inhibition of PA28-activated proteasome | inhibition of proteasome activation by PA28 [2, 4]: competitively inhibits binding and activation of PA28

Ile-Tyr
activity of the dipeptide by itself ([2]; kind of activity not specified further): very weak activity

B1: Carboxypeptidase Y: Carboxypeptidase Y from yeast (Boehringer, 1111914) (protein, UniProt P00729 112-532, looked up)
Carboxypeptidase Y: KIKDPKILGIDPNVTQYTGYLDVEDEDKHFFFWTFESRNDPAKDPVILWLNGGPGCSSLTGLFFELGPSSIGPDLKPIGNPYSWNSNATVIFLDQPVNVGFSYSGSSGVSNTVAAGKDVYNFLELFFDQFPEYVNKGQDFHIAGESYAGHYIPVFASEILSHKDRNFNLTSVLIGNGLTDPLTQYNYYEPMACGEGGEPSVLPSEECSAMEDSLERCLGLIESCYDSQSVWSCVPATIYCNNAQLAPYQRTGRNVYDIRKDCEGGNLCYPTLQDIDDYLNQDYVKEAVGAEVDHYESCNFDINRNFLFAGDWMKPYHTAVTDLLNQDLPILVYAGDKDFICNWLGNKAWTDVLPWKYDEEFASQKVRNWTASITDEVAGEVKSYKHFTYLRVFNGGHMVPFDVPENALSMVNEWIHGGFSL
effect of peptidase or protease on PA28 activity (PA28): each inactivated PA28 without detectably altering its molecular weight on SDS-PAGE

B2: PI31: inhibitor protein of the proteasome purified from bovine red blood cells, Mr=31,000 subunit (protein, UniProt Q3SX30 2-270, looked up)
Proteasome inhibitor PI31 …: AGLEVLFASAAPAITCAQDALVCFLHWEVVTHGYYGLGAGDQPGPNDKKSELLPVEWNSNKDLYVLRYESKDGSRKLLVKAVTVENSMIINVLEHGSQQVSDLTLNLNDYIDSEHLVDFHRVYKNSEELRSRIVSGIITPIHEQWEKANLSPHREFPPATAREVDPLRIHPQHPHTSRQPTWCDPLGPFAVGGEDLDPFGCRRGGMIVDPLRSGFPRALIDPSSGLPNRLPPGAVPPGARFDPFGPIGTSPSGPNPDHLPPPGYDDMYL
inhibition of peptidase and protease activities of the proteasome [3]: inhibited all of the peptidase and protease activities of both the latent and active forms of the proteasome by a non-competitive mechanism
